± gives the uncertainty stated by the source.
Test system: HEK293T
Assay: plasma membrane surface immunostaining intensity (anti-HA, deep receptor scanning) (arbitrary fluorescence units); higher = higher plasma membrane expression

Sequence | plasma membrane surface immunostaining intensity (GPCR class: A) | plasma membrane surface immunostaining intensity (GPCR class: A (Olfactory)) | further results
MQAALTAFFVLLFSLLSLLGIAANGFIVLVLGREWLRYGRLLPLDMILISLGASRFCLQLVGTVHNFYYSAQKVEYSGGLGRQFFHLHWHFLNSATFWFCSWLSVLFCVKIANITHSTFLWLKWRFPGWVPWLLLGSVLISFIITLLFFWVNYPVYQEFLIRKFSGNMTYKWNTRIETYYFPSLKLVIWSIPFSVFLVSIMLLINSLRRHTQRMQHNGHSLQDPSTQAHTRALKSLISFLILYALSFLSLIIDAAKFISMQNDFYWPWQIAVYLCISVHPFILIFSNLKLRSVFSQLLLLARGFWVA [TAS2R41] | – | – | plasma membrane surface immunostaining intensity (GPCR class: Taste): 129 ± 20
MQALNITPEQFSRLLRDHNLTREQFIALYRLRPLVYTPELPGRAKLALVLTGVLIFALALFGNALVFYVVTRSKAMRTVTNIFICSLALSDLLITFFCIPVTMLQNISDNWLGGAFICKMVPFVQSTAVVTEILTMTCIAVERHQGLVHPFKMKWQYTNRRAFTMLGVVWLVAVIVGSPMWHVQQLEIKYDFLYEKEHICCLEEWTSPVHQKIYTTFILVILFLLPLMVMLILYSKIGYELWIKKRVGDGSVLRTIHGKEMSKIARKKKRAVIMMVTVVALFAVCWAPFHVVHMMIEYSNFEKEYDDVTIKMIFAIVQIIGFSNSICNPIVYAFMNENFKKNVLSAVCYCIVNKTFSPAQRHGNSGITMMRKKAKFSLRENPVEETKGEAFSDGNIEVKLCEQTEEKKKLKRHLALFRSELAENSPLDSGH [QRFPR] | 392 ± 31 | – | –
MQGENFTIWSIFFLEGFSQYPGLEVVLFVFSLVMYLTTLLGNSTLILITILDSRLKTPMYLFLGNLSFMDICYTSASVPTLLVNLLSSQKTIIFSGCAVQMYLSLAMGSTECVLLAVMAYDRYVAICNPLRYSIIMNRCVCARMATVSWVTGCLTALLETSFALQIPLCGNLIDHFTCEILAVLKLACTSSLLMNTIMLVVSILLLPIPMLLVCISYIFILSTILRITSAEGRNKAFSTCGAHLTVVILYYGAALSMYLKPSSSNAQKIDKIISLLYGVLTPMLNPIIYSLRNKEVKDAMKKLLGKITLHQTHEHL [OR2K2] | – | 144 ± 20 | –
MQGLNHTSVSEFILVGFSAFPHLQLMLFLLFLLMYLFTLLGNLLIMATVWSERSLHMPMYLFLCALSITEILYTVAIIPRMLADLLSTQRSIAFLACASQMFFSFSFGFTHSFLLTVMGYDRYVAICHPLRYNVLMSLRGCTCRVGCSWAGGLVMGMVVTSAIFHLAFCGHKEIHHFFCHVPPLLKLACGDDVLVVAKGVGLVCITALLGCFLLILLSYAFIVAAILKIPSAEGRNKAFSTCASHLTVVVVHYGFASVIYLKPKGPQSPEGDTLMGITYTVLTPFLSPIIFSLRNKELKVAMKKTCFTKLFPQNC [OR10H5] | – | 129 ± 21 | –
MQGPLLLPGLCFLLSLFGAVTQKTKTSCAKCPPNASCVNNTHCTCNHGYTSGSGQKLFTFPLETCNDINECTPPYSVYCGFNAVCYNVEGSFYCQCVPGYRLHSGNEQFSNSNENTCQDTTSSKTTEGRKELQKIVDKFESLLTNQTLWRTEGRQEISSTATTILRDVESKVLETALKDPEQKVLKIQNDSVAIETQAITDNCSEERKTFNLNVQMNSMDIRCSDIIQGDTQGPSAIAFISYSSLGNIINATFFEEMDKKDQVYLNSQVVSAAIGPKRNVSLSKSVTLTFQHVKMTPSTKKVFCVYWKSTGQGSQWSRDGCFLIHVNKSHTMCNCSHLSSFAVLMALTSQEEDPVLTVITYVGLSVSLLCLLLAALTFLLCKAIRNTSTSLHLQLSLCLFLAHLLFLVGIDRTEPKVLCSIIAGALHYLYLAAFTWMLLEGVHLFLTARNLTVVNYSSINRLMKWIMFPVGYGVPAVTVAISAASWPHLYGTADRCWLHLDQGFMWSFLGPVCAIFSANLVLFILVFWILKRKLSSLNSEVSTIQNTRMLAFKATAQLFILGCTWCLGLLQVGPAAQVMAYLFTIINSLQGFFIFLVYCLLSQQVQKQYQKWFREIVKSKSESETYTLSSKMGPDSKPSEGDVFPGQVKRKY [ADGRE3] | – | – | plasma membrane surface immunostaining intensity (GPCR class: B): 344 ± 13
MQLNNNVTEFILLGLTQDPFWKKIVFVIFLRLYLGTLLGNLLIIISVKTSQALKNPMFFFLFYLSLSDTCLSTSITPRMIVDALLKKTTISFSECMIQVFSSHVFGCLEIFILILTAVDRYVDICKPLHYMTIISQWVCGVLMAVAWVGSCVHSLVQIFLALSLPFCGPNVINHCFCDLQPLLKQACSETYVVNLLLVSNSGAICAVSYVMLIFSYVIFLHSLRNHSAEVIKKALSTCVSHIIVVILFFGPCIFMYTCLATVFPMDKMIAVFYTVGTSFLNPVIYTLKNTEVKSAMRKLWSKKLITDDKR [OR4C16] | – | 162 ± 72 | –
MQMADAATIATMNKAAGGDKLAELFSLVPDLLEAANTSGNASLQLPDLWWELGLELPDGAPPGHPPGSGGAESADTEARVRILISVVYWVVCALGLAGNLLVLYLMKSMQGWRKSSINLFVTNLALTDFQFVLTLPFWAVENALDFKWPFGKAMCKIVSMVTSMNMYASVFFLTAMSVTRYHSVASALKSHRTRGHGRGDCCGRSLGDSCCFSAKALCVWIWALAALASLPSAIFSTTVKVMGEELCLVRFPDKLLGRDRQFWLGLYHSQKVLLGFVLPLGIIILCYLLLVRFIADRRAAGTKGGAAVAGGRPTGASARRLSKVTKSVTIVVLSFFLCWLPNQALTTWSILIKFNAVPFSQEYFLCQVYAFPVSVCLAHSNSCLNPVLYCLVRREFRKALKSLLWRIASPSITSMRPFTATTKPEHEDQGLQAPAPPHAAAEPDLLYYPPGVVVYSGGRYDLLPSSSAY [RXFP3] | 979 ± 290 | – | –
MQPESGANGTVIAEFILLGLLEAPGLQPVVFVLFLFAYLVTVRGNLSILAAVLVEPKLHTPMYFFLGNLSVLDVGCISVTVPSMLSRLLSRKRAVPCGACLTQLFFFHLFVGVDCFLLTAMAYDRFLAICRPLTYSTRMSQTVQRMLVAASWACAFTNALTHTVAMSTLNFCGPNVINHFYCDLPQLFQLSCSSTQLNELLLFAVGFIMAGTPMALIVISYIHVAAAVLRIRSVEGRKKAFSTCGSHLTVVAIFYGSGIFNYMRLGSTKLSDKDKAVGIFNTVINPMLNPIIYSFRNPDVQSAIWRMLTGRRSLA [OR3A1] | – | 125 ± 18 | –
MQPPPSLCGRALVALVLACGLSRIWGEERGFPPDRATPLLQTAEIMTPPTKTLWPKGSNASLARSLAPAEVPKGDRTAGSPPRTISPPPCQGPIEIKETFKYINTVVSCLVFVLGIIGNSTLLRIIYKNKCMRNGPNILIASLALGDLLHIVIDIPINVYKLLAEDWPFGAEMCKLVPFIQKASVGITVLSLCALSIDRYRAVASWSRIKGIGVPKWTAVEIVLIWVVSVVLAVPEAIGFDIITMDYKGSYLRICLLHPVQKTAFMQFYKTAKDWWLFSFYFCLPLAITAFFYTLMTCEMLRKKSGMQIALNDHLKQRREVAKTVFCLVLVFALCWLPLHLSRILKLTLYNQNDPNRCELLSFLLVLDYIGINMASLNSCINPIALYLVSKRFKNCFKSCLCCWCQSFEEKQSLEEKQSCLKFKANDHGYDNFRSSNKYSSS [EDNRB] | 794 ± 140 | – | –
MQPYTKNWTQVTEFVMMGFAGIHEAHLLFFILFLTMYLFTLVENLAIILVVGLDHRLRRPMYFFLTHLSCLEIWYTSVTVPKMLAGFIGVDGGKNISYADCLSQLFIFTFLGATECFLLAAMAYDRYVAICMPLHYGAFVSWGTCIRLAAACWLVGFLTPILPIYLLSQLTFYGPNVIDHFSCDASPLLALSCSDVTWKETVDFLVSLAVLLASSMVIAVSYGNIVWTLLHIRSAAERWKAFSTCAAHLTVVSLFYGTLFFMYVQTKVTSSINFNKVVSVFYSVVTPMLNPLIYSLRNKEVKGALGRVFSLNFWKGQ [OR6Q1] | – | 392 ± 120 | –
MQRANHSTVTQFILVGFSVFPHLQLMLFLLFLLMYLFTLLGNLLIMATVWSERSLHTPMYLFLCALSVSEILYTVAIIPRMLADLLSTQRSIAFLACASQMFFSFSFGFTHSFLLTVMGYDRYVAICHPLRYNVLMSPRGCACLVGCSWAGGLVMGMVVTSAIFHLAFCGHKEIHHFACHVPPLLKLACGDDVLVVAKGVGLVCITALLGCFLLILLSYAFIVAAILKIPSAEGRNKAFSTCASHLTVVVVHYGFASVIYLKPKSPQSLEGDTLMGITYTVLTPFLSPIIFSLRNKELKVAMKKTFFSKLYPEKNVMM [OR10H1] | – | 121 ± 17 | –
MQRPGPRLWLVLQVMGSCAAISSMDMERPGDGKCQPIEIPMCKDIGYNMTRMPNLMGHENQREAAIQLHEFAPLVEYGCHGHLRFFLCSLYAPMCTEQVSTPIPACRVMCEQARLKCSPIMEQFNFKWPDSLDCRKLPNKNDPNYLCMEAPNNGSDEPTRGSGLFPPLFRPQRPHSAQEHPLKDGGPGRGGCDNPGKFHHVEKSASCAPLCTPGVDVYWSREDKRFAVVWLAIWAVLCFFSSAFTVLTFLIDPARFRYPERPIIFLSMCYCVYSVGYLIRLFAGAESIACDRDSGQLYVIQEGLESTGCTLVFLVLYYFGMASSLWWVVLTLTWFLAAGKKWGHEAIEANSSYFHLAAWAIPAVKTILILVMRRVAGDELTGVCYVGSMDVNALTGFVLIPLACYLVIGTSFILSGFVALFHIRRVMKTGGENTDKLEKLMVRIGLFSVLYTVPATCVIACYFYERLNMDYWKILAAQHKCKMNNQTKTLDCLMAASIPAVEIFMVKIFMLLVVGITSGMWIWTSKTLQSWQQVCSRRLKKKSRRKPASVITSGGIYKKAQHPQKTHHGKYEIPAQSPTCV [FZD10] | – | – | plasma membrane surface immunostaining intensity (GPCR class: F): 2420 ± 580
MRAPGALLARMSRLLLLLLLKVSASSALGVAPASRNETCLGESCAPTVIQRRGRDAWGPGNSARDVLRARAPREEQGAAFLAGPSWDLPAAPGRDPAAGRGAEASAAGPPGPPTRPPGPWRWKGARGQEPSETLGRGNPTALQLFLQISEEEEKGPRGAGISGRSQEQSVKTVPGASDLFYWPRRAGKLQGSHHKPLSKTANGLAGHEGWTIALPGRALAQNGSLGEGIHEPGGPRRGNSTNRRVRLKNPFYPLTQESYGAYAVMCLSVVIFGTGIIGNLAVMCIVCHNYYMRSISNSLLANLAFWDFLIIFFCLPLVIFHELTKKWLLEDFSCKIVPYIEVASLGVTTFTLCALCIDRFRAATNVQMYYEMIENCSSTTAKLAVIWVGALLLALPEVVLRQLSKEDLGFSGRAPAERCIIKISPDLPDTIYVLALTYDSARLWWYFGCYFCLPTLFTITCSLVTARKIRKAEKACTRGNKRQIQLESQMNCTVVALTILYGFCIIPENICNIVTAYMATGVSQQTMDLLNIISQFLLFFKSCVTPVLLFCLCKPFSRAFMECCCCCCEECIQKSSTVTSDDNDNEYTTELELSPFSTIRREMSTFASVGTHC [GPR37] | 158 ± 26 | – | –
MRAVFIQGAEEHPAAFCYQVNGSCPRTVHTLGIQLVIYLACAAGMLIIVLGNVFVAFAVSYFKALHTPTNFLLLSLALADMFLGLLVLPLSTIRSVESCWFFGDFLCRLHTYLDTLFCLTSIFHLCFISIDRHCAICDPLLYPSKFTVRVALRYILAGWGVPAAYTSLFLYTDVVETRLSQWLEEMPCVGSCQLLLNKFWGWLNFPLFFVPCLIMISLYVKIFVVATRQAQQITTLSKSLAGAAKHERKAAKTLGIAVGIYLLCWLPFTIDTMVDSLLHFITPPLVFDIFIWFAYFNSACNPIIYVFSYQWFRKALKLTLSQKVFSPQTRTVDLYQE [TAAR5] | 381 ± 140 | – | –
MRFTFTSRCLALFLLLNHPTPILPAFSNQTYPTIEPKPFLYVVGRKKMMDAQYKCYDRMQQLPAYQGEGPYCNRTWDGWLCWDDTPAGVLSYQFCPDYFPDFDPSEKVTKYCDEKGVWFKHPENNRTWSNYTMCNAFTPEKLKNAYVLYYLAIVGHSLSIFTLVISLGIFVFFRSLGCQRVTLHKNMFLTYILNSMIIIIHLVEVVPNGELVRRDPVSCKILHFFHQYMMACNYFWMLCEGIYLHTLIVVAVFTEKQRLRWYYLLGWGFPLVPTTIHAITRAVYFNDNCWLSVETHLLYIIHGPVMAALVVNFFFLLNIVRVLVTKMRETHEAESHMYLKAVKATMILVPLLGIQFVVFPWRPSNKMLGKIYDYVMHSLIHFQGFFVATIYCFCNNEVQTTVKRQWAQFKIQWNQRWGRRPSNRSARAAAAAAEAGDIPIYICHQELRNEPANNQGEESAEIIPLNIIEQESSA [CALCR] | – | – | plasma membrane surface immunostaining intensity (GPCR class: B): 5000 ± 720
